B1: Hunk (Hormonally Up-regulated, Neu-Tumor-Associated Kinase), mouse, 714-amino-acid ~80-kDa polypeptide (protein)
chain: MPAAAGDGLLGEPAAPGGDGGAEDTTRPAAACEGSFLPAWVSGVSRERLRDFQHHKRVGNYLIGSRKLGEGSFAKVREGLHVLTGEKVAIKVIDKKRAKKDTYVTKNLRREGQIQQMIRHPNITQLLDILETENSYYLVMELCPGGNLMHKIYEKKRLDEAEARRYIRQLISAVEHLHRAGVVHRDLKIENLLLDEDNNIKLIDFGLSNCAGILGYSDPFSTQCGSPAYAAPELLARKKYGPKIDVWSIGVNMYAMLTGTLPFTVEPFSLRALYQKMVDKAMNPLPTQLSTGAVNFLRSLLEPDPVKRPNIQQALANRWLNENYTGKVPCNVTYPNRISLEDLSPSVVLHMTEKLGYKNSDVINTVLSNRACHILAIYFLLNKKLERYLSGKSDIQDSICYKTQLYQIEKCRATKEPYEASLDTWTRDFEFHAVQDKKPKEQEKRGDFLHRPFSKKLDKNLPSHKQPSPSLITQLQSTKALLKDRKASKSGFPDKDSFVCRNLFRKTSDSNCVASSSMEFIPVPPPRTPRIVKKLEPHQPGPGSASILPKEEPLLLDMVRSFESVDREDHIELLSPSHHYRILSSPVSLARRNSSERTLSQGLLSGSTSPLQTPLHSTLVSFAHEEKNSPPKEEGVCSPPPVPSNGLLQPLGSPNCVKSRGRFPMMGIGQMLRKRHQSLQPSSERSLDASMSPLQPIAPSSLSFDMADGVKGQC
in vitro kinase assay of Hunk immunoprecipitates with [gamma-32P]ATP (histone H1): Hunk immunoprecipitates were able to phosphorylate both histone H1 and MBP in vitro
in vitro kinase assay of anti-Hunk immunoprecipitates with gamma-32P-ATP and histone H1 (histone H1): Hunk-associated kinase activity was substantially greater in immunoprecipitates prepared from transgenic when compared with wild type mammary glands
in vitro kinase assay of Hunk immunoprecipitates with [gamma-32P]ATP (myelin basic protein): Hunk immunoprecipitates were able to phosphorylate both histone H1 and MBP in vitro

From US20140234321
